Twelve sequences from the supplement of paper PMC9170038 can be followed below.

This data set relates to MS2 coat protein. The experiment in a line: apparent KD of MS2 coat protein; designed switch direction (-1 OFF switch, 1 ON switch): -1; higher = weaker reporter binding. Summed up: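 Designed RNA switches with common flanks were transcribed on Illumina chips by stalled E. coli RNA polymerase and titrated with SNAP-549-labelled MS2 coat protein, from 0.7 or 1.5 nM doubling to 3 µM, in Tris-HCl pH 7.5 buffer with KCl, MgCl2, BSA, DTT, tRNA and Tween-20. Steps lasted 0.8–1.5 h (lowest) to 10–20 min (highest). Titrations ran without input, with 200 uM small-molecule ligand, or with an oligonucleotide input. Normalised cluster fluorescence was curve-fitted, and apparent KD is the per-design median over clusters.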

Where [1] appears, read: input ligand: microRNA oligo, concentration not stated.

As for “GCACGGAUGGUAGGAUAUCAUUGCGAUUAGCUAUGAGAAGGACCACAUGAGGAUCACCCAUGUCCUCUAAUUAGCCUUCCGUGC [Eli exng1 - 016] (Eterna round: R96, puzzle: Exclusion NG 1)”, the “apparent KD of MS2 coat protein” value under setting [1] came to 156 nM.

Turning to “GCACGGAUGGUAGGAUAUCCUUGCGAUUAGCAAGGAGAAGGACCACAUGAGGAUCACCCAUGUACCUCAAUUAUCCUUCCGUGC [Eli exng1 - 023] (Eterna round: R96, puzzle: Exclusion NG 1)”, the “apparent KD of MS2 coat protein” value reads like this: (input ligand: FMN 200 uM) 12.7 nM; under setting [1], 9.18 nM; (input ligand: none) 15.8 nM.

For the sequence “GCAGAAAGUGUAGGAUAUAUAAAUUAGCGGAAACGCAAUACAUGAGGAUCACCCAUGUUUCCUCAAUAGAAGGGCAAAAGCUGC [EXNG2 V2 e] (Eterna round: R96, puzzle: Exclusion NG 2)”, the “apparent KD of MS2 coat protein” value by setting is: (input ligand: FMN 200 uM) 88 nM; under setting [1], 37.9 nM; (input ligand: none) 79.8 nM.

For the sequence “GCAGACGUAGUGAGGAUAUGCUCUACCUCGGUAGAGCAGAAGGCACAUGAGGAUCACCCAUGUGGCUCCUCAUU [Omei Ex4B B22] (Eterna round: R97, puzzle: Brourd's mod of Exclusion 4)”, the “apparent KD of MS2 coat protein” value by setting is: (input ligand: FMN 200 uM) 16.8 nM; (input ligand: none) 15 nM.

For the sequence “GCAGCAACUCUAACCAACUAAACAUGAGGAUCACCCAUGUCUCAGGAUAUGGUCUGGAUUACAGGCCAGAAGGGAGAAAGCUGC [Eli exng3 - 042] (Eterna round: R96, puzzle: Exclusion NG 3)”, the “apparent KD of MS2 coat protein” value was 12.4 nM (input ligand: FMN 200 uM), 12.3 nM under setting [1] and 12.6 nM (input ligand: none).

On to “GCAGCAUAGAUAACAUACUGUUACAUGAGGAUCACCCAUGUAUAGGAUAUGGUCUGGAUUACAGGCCAGAAGGGUACAAGCUGC [Eli exng3 - 022] (Eterna round: R96, puzzle: Exclusion NG 3)”, for which the “apparent KD of MS2 coat protein” value stood at 12.6 nM (input ligand: FMN 200 uM), 9.84 nM under setting [1] and 14.4 nM (input ligand: none).

Take “GCAGCAUAGUCGGAAACGACAGAACAUGAGGAUCACCCAUGUCAGGAUAUGGUCUGGAUUACAGGCCAGAAGGGACAAAGCUGC [Eli exng3 - 008] (Eterna round: R96, puzzle: Exclusion NG 3)”: the “apparent KD of MS2 coat protein” value was 19.6 nM (input ligand: FMN 200 uM), 14.1 nM under setting [1] and 19.8 nM (input ligand: none).

Consider “GCAGCGUAUGUAGGAUAUCGGUCAGUUUCUGAUCGAGAAGGACAUGAGGAUCACCCAUGUGCGGUCAUGCGUGAGCAUGGCUGC [JL ENG1 3.74] (Eterna round: R96, puzzle: Exclusion NG 1)”, for which the “apparent KD of MS2 coat protein” value is, setting by setting: (input ligand: FMN 200 uM) 268 nM; under setting [1], 31.3 nM; (input ligand: none) 41.2 nM.

On to “GCAGCGUAUGUAGGAUAUCGGUCAGUUUCUGAUCGAGAAGGACAUGAGGAUCACCCAUGUUAUUUCAUGCGUGAGCAUGGCUGC [JL ENG1 3.73] (Eterna round: R96, puzzle: Exclusion NG 1)”, for which the “apparent KD of MS2 coat protein” value (input ligand: FMN 200 uM) was determined as 271 nM, the “apparent KD of MS2 coat protein” value under setting [1] is 31 nM and the “apparent KD of MS2 coat protein” value (input ligand: none) was found to be 37.1 nM.

On to “GCAGCUAACUGUGAUAACAGCACAUGAGGAUCACCCAUGUCUGAGGAUAUGGACUGGAUUACAGUCCAGAAGGCAGAAUGCUGC [Zipper Style 7] (Eterna round: R96, puzzle: Exclusion NG 3)”, for which the “apparent KD of MS2 coat protein” value by setting is: (input ligand: FMN 200 uM) 10.8 nM; under setting [1], 8.87 nM; (input ligand: none) 13.4 nM.

As for “GCAGGUUAAGUCAGGAUAUACCUAUGGAUACAUAGGUAGAAGGGACAUGAGGAUCACCCAUGUGGCUCACCUGC [Fiskers BMX 4 - 60] (puzzle: Brourd's mod of Exclusion 4)”, the “apparent KD of MS2 coat protein” value (Eterna round: R95, input ligand: microRNA oligo, concentration not stated) was determined as 21.6 nM.

As to “GCAGUUCGAGUUAGGAUAUGAUGUUAAUUCGGAUAUCAGAAGGAACUUGAGGAUCACCCAAGUAUAGAUGUUGU [JR_BMEx4_Sub061] (Eterna round: R97, puzzle: Brourd's mod of Exclusion 4)”, the “apparent KD of MS2 coat protein” value was found to be 31.3 nM (input ligand: FMN 200 uM) and 19.8 nM (input ligand: none).
